Experimental data from publication PMC3173129.

Molecular target: Orai3 N-terminal peptide aa 52–65 (human) (UniProt Q9BRQ5)
Assay: SPR

In the case of “Calmodulin from bovine testes (from UniProt P62157 1-149) (natural protein)”, the response (resonance units) (resonance units) is reported as 207.
